Source: patent US20250034594A1, “RNA-GUIDED GENOME RECOMBINEERING AT KILOBASE SCALE” (THE BOARD OF TRUSTEES OF THE LELAND STANFORD JUNIOR …, priority 2021, published 2025)

B1: SSAP_281: SEQ ID NO: 450; Leucobacter luti (protein, listed as Leucobacter luti)
chain: SDLSQAAVAVKKSKTVEDYLTEYEPQFQRALGKSMDAAKFSQDALTAIKQTPQLGQADLQTLFGSLFLAAQLKLPVGGPLAQFHLTPRKRGDKLEVLPIIGFGGYVQLIMNTGLYSKVGAFLIYEKDYFDEGANSERGEFYDFKKSRGDRGPVVGVIAYVKLKGFDESQYVFLDADTIRSRHRPRYWEKTPWGSDEGEMFKKTGVRVLQKLLPKSVEAAPLALAADADQATVRKVDGIEDLTIQHDVVDAEVVPDGVPV
B2: SSAP_200: SEQ ID NO: 369; Streptomyces (multispecies) (protein, listed as Streptomyces sp.)
chain: SQISNALATRDQGPAAQIEQYRDEYAALVPSHVNADQWVRLAVGAVRGDEKLMEAAQNDIGLFLREMKTAARLGLEPGTEQFYLTPRKSKPHGGRKVIKGIVGYQGIVELIYRAGAASTVIVEAVRENDTFRYVPGRDDRPVHEIDWFANDRGPLVGVYAYAVMKDGAVSKVVVLNRSRVMEFKAKSDSKHSEYSPWNTNEEAMWLKSAVRQLAKWVPTSAEYRRDQLLAHTETADSVVASVSTAPLPPQPSALDDADPDDDGPIDAELVD
B3: SSAP_195: SEQ ID NO: 364; Isoptericola dokdonensis (protein, listed as Isoptericola dokdonensis)
chain: TQDLATAIADQQPAQRRTAFDLVESMRGELHKALPEHASIDNFLRLALTELKMNPQLGNCSGESLLGALMTAARVGLEVGGPLGQFYLTPRRLKRDGWAVVPIVGYRGLITLARRAGVGQVNAVVVHEGDTFREGASSERGFFFDWEPAVERGKPVGALAAARLAGGDVQHRYLSLAEVHERRDRGGFKDGSNSPWATDYDAMVRKTALRALVPLLPQSTALSFAVQADEQVQRYDAGDIDIPALDETDTEDTK
B4: SSAP_136: SEQ ID NO: 305; Corynebacterium striatum (protein, listed as Corynebacterium striatum)
chain: GTNLEQRMAANNAPAKQNRPVTLADQIRSMESQFQLAMPKGMEAQQLVRDALTCLRQTPKLAECTPQSVLGGLMTCSQLGLRPGVLGHAYLLPFWDRKQGGMVAQLVVGYRGLVELAHRSGQIQSLIARTVYENDHFDVDYGLDDKLVHKPCMNGPKGNPIAYYAVAKFTTGGHSFIVMSKDEMLAYRDEFAKAKNKQGEVFGPWADNFDAMAHKTCVRQLAKWMPSSTDLDRGIAADETVRVDLSESALDYPQHVDGEVVDSKPAEDEAA
B5: SSAP_125: SEQ ID NO: 294; Lysinibacillus fusiformis (protein, listed as Lysinibacillus fusiformis)
chain: ATTNELKAKSQNQVQQNVTPEQSLNTLLKRMGPQIQRALPKHMDADRIARIALTAVRATPKLLECDQMSFVAALMQSAQLGVEPNTGLGQAYLIPYGKQVQFQLGYKGLIDLAVRSGQYKAIYAHEVYKEDEFSFAYGLHKDLVHVPSTNPEGEPIGYYAVYHLKNGGYDFVYWTRERIDKHAHEFSQAVKKGWTSPWKTNYDAMAKKTVLKEVLKYAPKSIELQKVVEADETIKTEVSEDMSDVIDVTDYSVIEDESAQEELIIEQ
B6: SSAP_167: SEQ ID NO: 336; Ruminococcus sp. (protein, listed as Ruminococcus sp.)
chain: GTSIQKNVENNALQKEKMPTMQAYIKKMEGEIKKALPSVMTPERFTRITLSALSTNPKLAATTPGSFLGAMMTAAQLGLEPNTPLGQAYLIPYSNKGKLECQFQIGYKGLIDLAYRSGSISVIQAHTVYENDDFEYELGLDPKLKHIPSKSADKGNPAWFYAVFKTKDGGYGFEVMSIEDIRSHAAKYSQSYNSAYSPWKTNFEEMAKKTVLKKALKYAPLKSDFVRQISTDETIKTKLSDDMFSVPAETIEVEGIEVDTETGEITEVDHA
B7: SSAP_116: SEQ ID NO: 285; Lachnoclostridium sp. An14 (protein, listed as Lachnoclostridium sp.)
chain: TDVKQELERKVGKQDSTAVRLTKNMSIPDMIKALEPEIRRALPAVLTPERFLRMALSAVNNTPKLAECTPMSFIAAMMNAAQLGLEPNTPLGQAYLIPYKNKNQLECQFQIGYKGIIDLAYRTGQMQMIQAHAVHEFDDFEYEYGLNPKLIHRPGDGNRGEITYFYGLFKLVNGGFGFEVMNREAMEAFAQQYSQSYGSQYSPWVKNFEDMAKKTVIKKALKYGPVKAEFQKAISMDETIKTEIAVDMTEVQNEESE
B8: SSAP_2: SEQ ID NO: 173 (protein)
chain: ATNESLKNQLTTKKETGLGSAGNTIKGLMNSPAIKKRFEEVLKQRAPQYMSSIVNLVNSDINLKKCDQMSVVASCMVAATLDLPVDKNLGYAWVVPYGNKAQFQLGYKGYVQLALRTGQYKSINVIEIHEGELIDWNPLTEELKIDFSKKESDAVIGYAGYFELLNGFKKSTYWTKEQITKHKNKFSKSDFGWKKDFDAMARKTVLRNMLSKWGILSIEMQNAYTADQGIIKNEIMETGEVKENIEYIEADFESYEDNSIEEGGANE
B9: SSAP_212: SEQ ID NO: 381; Streptomyces sp. NRRL S-1824 (protein, listed as Streptomyces sp.)
chain: SEISNAIATRDQGPAAQIEAYRDEYAALVPSHINVDQWVRLAAGAIRGNEDLMEAARNDIGVFLRELKTAARLGLEPGTEQFYLTARKSKAHGYALIIKGIVGYQGIVELIYRAGAVSSVIVEAVRANDTFSYVPGRDDRPIHEIDWFGGDRGPLVGVYAYAVMKDGAVSKVVVMNHKRVMEIKARSDSKNSQYSPWNTDEESMWLKSAIRQLAKWVPTSAEYKSEQLRAHAEAIGELASVASAPLPPQPSVLDDVDPDDEGPIEGELVD
B10: SSAP_148: SEQ ID NO: 317; Corynebacterium liangguodongii (protein, listed as Corynebacterium liangguodongii)
chain: KDLETRMAANQQPAQQRPTTLADQIRGMEQQFALAMPKGAEASQLVRDALTALRQAPKLAQCTPQSVLGSLMTCAQLGLRPGVLGHAYLIPFYDRRAGGLVAQLVIGYQGLVELAHRSGQIKSLIARTVYENDVFDVDYGLEDKLVHKPYMGGDKGQPIAYYAVAKFTTGGHAFYVMSHPEMLDYRARFAKSAERGPWVDNFEAMALKTCVRQLSKWMPKSTELATAIAADESVRVDLTPDAINYPEHVDGEVVDAQGTTEDTAGEGEQSA
B11: SSAP_139: SEQ ID NO: 308; Butyrivibrio sp. FCS006 (protein, listed as Butyrivibrio sp.)
chain: PYLFGGQMKEQEIKNQLAAKAVETTNPKLSKNMNIADLIKAIEPEIKKALPTVITPERFTRIALSALNTTPKLAECSQMSFLAALMNAAQLGLEVNSPLGQAYLIPYNNKGKLECQFQIGYKGMLGLAYRNPEIQTIQAQVVYENDDFKYELGLDSKLYHKPSLSDRGKVRCYYALYKLRNGGYGFEVMSRRDVEEYAKRYSKVTDSLYSPWANNFDSMAKKTVIKQLLKYAPLRTDLEKAMSMDESIKTRVSVDMSEVENEETFDAEVEV
B12: SSAP_127: SEQ ID NO: 296; Solibacillus sp. R5-41 (protein, listed as Solibacillus sp.)
chain: ATSNELKKQAQGQVTAKPTTPEGSLNALLKKMGPEIQRALPKHMDADRIARIALTAVRTTPKLLECDQLSFVAALMQSAQLGVEPNTGLGQAYLIPYGGKVQFQLGYKGLIDLAVRSGQYKAIYAHEVYADDEFSFAYGLHKDLVHVPSANPSGDPIGYYAVYHLKNGGYDFVYWTRERIDIHSKAFSQAVQKGWTSPWKTNYDAMAKKTVLKEVLKYAPKSIEMQKVVEADETIKNEVAPDMSNVIDVTDYSILEDPQDVTDAQ
B13: SSAP_53: SEQ ID NO: 222 (protein)
chain: STALTTLTSQLSQRFKLDGGEELLTTLKQTAFKGQVTDAQMTALLIVANQFGLNPWTKEIYAFPDKNGGIVPVVGVDGWARIINEHPQFDGMDFEMDGEQSCTCVIYRKDRTRPIRITEYMAECKKTGGGPWQSHPRRMLRHKAMIQCARMAFGFGGISDEDDAERIREKDITPQAEVVPKALEPYPADKFEENFEQWKSLIESGRRSADDVIAKIKSRNTMTDEQETRLRACGGEEGKTYENA

Tests used:
Assay type in all cases: cell-based
gene editing with Cas9 = assay: Screen of 322 new SSAP proteins, gene editing activity with Cas9 (Table 5); design: Cas9 with SSAP activity: scale not given here
Method in brief: (§1)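 Synthetic SSAP candidates, identified computationally, were tested in editing screens using both Cas9 and dCas9.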

gene editing with dCas9 = assay: Screen of 322 new SSAP proteins, gene editing activity with dCas9 (Table 5); design: dCas9 with SSAP activity: scale not given here
Method in brief: as §1

[1] = system: gene editing with Cas9 and dCas9; assay: Screen of 322 new SSAP proteins, activity across all experiments (Cas9 and dCas9, Table 5); design: scale not given here
Method in brief: as §1

Molecule	Cas9 with SSAP activity (gene editing with Cas9)	Cas9 with SSAP activity (normalized) (gene editing with Cas9)	dCas9 with SSAP activity (gene editing with dCas9)	dCas9 with SSAP activity (normalized) (gene editing with dCas9)	Activity across all experiments [1]
B1	−1.121	−0.672	−6.188	−0.973	−3.655
B2	−2.468	−0.973	−6.514	−1.107	−4.491
B3	−1.761	−1.896	−6.406	−0.956	−4.084
B4	−0.594	−0.262	−6.395	−0.952	−3.495
B5	−1.981	−0.329	−6.106	−1.313	−4.043
B6	−1.337	−0.698	−6.070	−0.834	−3.703
B7	−0.307	−0.056	−6.481		−3.394
B8	−7.779	−1.250	−6.114	−1.204	−6.946
B9	0.448	0.210	−6.577	−1.182	−3.064
B10	−3.731	−0.574	−6.656	−1.610	−5.193
B11	−6.481		−6.481		−6.481
B12	0.427	0.447	−6.524	−1.210	−3.048
B13	−1.644	−1.327	0.088	0.036	−0.778
